Tests used:
[1] = tested on: MS2 coat protein; test: apparent KD of MS2 coat protein, switch OFF state (with FMN for OFF switches, without FMN for ON switches); designed switch direction (-1 OFF switch, 1 ON switch): 1; higher = weaker reporter binding; conditions: FMN input: 0 or 200 uM; Eterna round: R93 (includes R88 designs)
Outline: (§1)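 Titration buffer: 100 mM Tris-HCl pH 7.5, 80 mM KCl, 4 mM MgCl2, without or with constant ligand. Designed RNA switches transcribed on-chip from Illumina sequencing clusters received SNAP-549-labelled MS2 coat protein in twofold steps from 0.7 or 1.5 nM to 3 µM. Apparent KD is the median per design of fits to normalised cluster binding curves.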

[2] = tested on: MS2 coat protein; test: apparent KD of MS2 coat protein, switch ON state; designed switch direction (-1 OFF switch, 1 ON switch): 1; higher = weaker reporter binding; conditions: FMN input: 0 or 200 uM; Eterna round: R93 (includes R88 designs)
Outline: as §1

Sequence	apparent KD of MS2 coat protein [1]	apparent KD of MS2 coat protein [2]
AUAUAUAUAAGGUAGGAUAUCCAAAAAUAAACAUGAGGAUCACCCAUGUCCAUAAAGAAUAAAUGGGAGAAGGACCAUAUAUAUA [viburnum 9]	48.6 nM	28.5 nM
AUAAAAGAAGCGAAGGAUAUCCAAAACCUAACAUGAGGAUCACCCAUGUAAAGAAAGAAAAAAUGGGAGAAGGUCGCAAAGAAUA [73%, More Fisker Same State 2, D3, 9]	22.7 nM	11.9 nM
AGAAAUAAAGCUGAGGAUAUGGGUAAAUACACAUGAGGAUCACCCAUGUAAAAGAAAAUAAAAAACCAGAAGGCAGCAAAUAAGA [Designing denovo 4]	30.8 nM	23.4 nM
AAUCCAAAUAGUCAGGAUAUCAAAAAUAAGACAUGAGGAUCACCCAUGUAAUAAGUAAAAGUAAAUGAGAAGGGACAGGGUGAAA [JR_SS002_Sub401]	92.8 nM	398 nM
AAGACACAUGAGGAUCACCCAUGUCAAGAGAGACGAGGAUAUCUGAAUUAAUUAAAUUAAGGAGAAGGCGUGAAAA [Same State of Confusion2]	58.1 nM	23.1 nM
ACAAACAAAAAAGAGGAUAUCCUAAACAAAACAUGAGGAUCACCCAUGUAAAAAAAAAUAAAAUGGGAGAAGGCUUACAACAAAC [SS2 M 23]	51.7 nM	68 nM
UAUAAACAUGAGGAUCACCCAUGUAGAAAUAUGGGAGGAUAUACGAAGACGAAAGUCAAAGUAGAAGGCCUAAUAU [Mat - Same State 1 - Eli mod - D113]	49.2 nM	16.9 nM
CAUCAUGCGCCUAAGGAUAUGUCUCACAAGACAUGAGGAUCACCCAUGUAGAAUAAAUAAAUGAUGCAGAAGGUGGAGCACAUGC [Leedanla]	586 nM	372 nM
AGGAGACAUGAGGAUCACCCAUGUAGAAGGAUGGGAGGAUAUACAAAGACGAGAGUCAGAGUAGAAGGCCUAGGAA [salish99-ss1-182(!)]	55.4 nM	19.7 nM
UAGAGACAUGAGGAUCACCCAUGUAGGAUUAUGGGAGGAUAUACAAAGACGAGAGUCAGAGUAGAAGGCCUAGGAU [salish99-ss1-134(!)]	61.4 nM	27.4 nM
AAAAAACAUGAGGAUCACCCAUGUCAAAAGACAUGAGGAUAUGUACAGACUUCGGUCUGUACAGAAGGCAUGUCAA [SS1 - 1019]	31.7 nM	21.1 nM
UAACAGCACAGGUAGGAUAUGUAGGGUGGUACAUGAGGAUCACCCAUGUAUCCACCCUUCGAAAGGCAGAAGGGCCUGUCGCUAC [Velabibe]	20.4 nM	14.6 nM
AAAUAUAAAGACUAGGAUAUACUAAAAUAAACAUGAGGAUCACCCAUGUAAAAAAUAAAACUCAUGUAGAAGGAGUAAAUAUAAA [ss2 10th]	15.5 nM	13.5 nM
AACCAACAUGAGGAUCACCCAUGUCAACCCAAGCGAGGAUAUCGGAGAAUAACAAUGGGACGAGAAGGCGCGACCU [ss1-2]	36.9 nM	34.4 nM
GUAGAACAUGAGGAUCACCCAUGUGAAGACGCAUGAGGAUAUAUACGUAAAUAGCAUACGAUAGAAGGCAUGAUAA [JR_SS001_Sub1703]	53.5 nM	25.5 nM
AAGAACGUGGUGUAGGAUAUACUAAUAGUCACAUGAGGAUCACCCAUGUUCAUAUAUAUGAACGAGUAGAAGGACGACGAAAAAA [Mat - Same state - Malcolm Mod - D107]	147 nM	137 nM
CUGGACGUAGGAUAGGAUAUAUGAAUAAUUACAUGAGGAUCACCCAUGUCCAUUUAUAUGGGAACAUAGAAGGGUUGUGGUUAAG [Mat - Same state - Malcolm Mod - D145]	241 nM	160 nM
CGAAGACAUGAGGAUCACCCAUGUGGGAUUAUGGGAGGAUAUACAAAGACGAGAGUCAGAGUAGAAGGCCUAGGAA [salish99-ss1-124(!)]	38.5 nM	23.3 nM
AAAAAACAUGAGGAUCACCCAUGUAAAAAAAUGGGAGGAUAUCUGAAUUAAUUAAAUUAAGGAGAAGGCCUAAAAA [71%, Same state of confusion2, 4]	425 nM	26 nM
AGGAAACAUGAGGAUCACCCAUGUAAAAAUAACGCAGGAUAUGGAAACACGAAAGUGAAACCAGAAGGGUGAAAAG [77%, Mat - Mod of Eli, 14]	29.8 nM	18.9 nM
GAAAAACAUGAGGAUCACCCAUGUAGAAAUAUGGGAGGAUAUACAAAGACGAAAGUCGAAGUAGAAGGCCUAAAAG [Mat - Same State 1 - Eli mod - D23]	66.8 nM	25.5 nM

Sequence	apparent KD of MS2 coat protein [1]	apparent KD of MS2 coat protein [2]
GAAAAACAUGAGGAUCACCCAUGUAGAAAUAUGGGAGGAUAUACGAAGACGAAAGUCAAAGUAGAAGGCCUAAAAG [Mat - Same State 1 - Eli mod - D22]	57.3 nM	28 nM
AUAUAUAUAAGGUAGGAUAUCCAAUAAUCCACAUGAGGAUCACCCAUGUAAAGAAAGAAAAAGUGGGAGAAGGGCCAUAUAUAUA [viburnum 7]	48.4 nM	17.4 nM
AACCAACAUGAGGAUCACCCAUGUCUACAGGAUUAAGGAUAUGGGCAGGGCUUCCCUGCACUAGAAGGUGAUCCAA [Enonenen]	52.3 nM	409 nM
AAAUGAUCAUGUGAGGAUAUCCAUAAUAAAACAUGAGGAUCACCCAUGUAUAGAUAAUAAUAAUGGGAGAAGGCACAUGAUCAAU [Mat - Same state - Mayanna Mod - D103]	17.2 nM	20 nM
GAGGACAUAGUACAGGAUAUAUGAAUAGUUACAUGAGGAUCACCCAUGUGCAUUUAUAUGCGAACAUAGAAGGGUGGUAGUUAUC [SameState2 Malc#30]	68.9 nM	136 nM
AUAUAUAUAAGGUAGGAUAUCCAAAAAUCCACAUGAGGAUCACCCAUGUAAAGAAAGAAAAAAUGGGAGAAGGACCAUAUAUAUA [77%, More Tesla, 6]	31.9 nM	16.9 nM
AGAAAUAAAAGACAGGAUAUCCACUCAAAAACAUGAGGAUCACCCAUGUAAAAGAAAAUAAAAUGGGAGAAGGGUCAAAAUAAGA [Jieux modified + C segment V7]	48.6 nM	15.5 nM
AGGAAACAUGAGGAUCACCCAUGUAAAAAAUAUGGAGGAUAUGCUAGAAGAAACAAAAUAGCAGAAGGCCAAAAAA [75%, Ex sub1, 23]	24.7 nM	13.7 nM
AAAAGACAUGAGGAUCACCCAUGUCAAAACGUAGGAGGAUAUGUCGUGAAAAAAGACUUGACAGAAGGCCUGUGUC [SS1 - 36]	17.1 nM	15.8 nM
AUACUGGAGGACAAGGAUAUGUGCUCCACGACAUGAGGAUCACCCAUGUGCGACGUGGUAGUGAAACAGAAGGUGUCCUAUUGUA [Edonisve]	17.7 nM	13.1 nM
AAUAAGACUAGCAAGGAUAUCUAAAACGAAACAUGAGGAUCACCCAUGUAACGAGUACACGUAUCAGAGAAGGUGCAGGGUGAAA [JR_SS002_Sub305]	16.2 nM	36.1 nM
GGAAAACAUGAGGAUCACCCAUGUGAAAACGUGGGAGGAUAUCCAUGGAAACCAUACUGUGGAGAAGGCCCAUGUC [EteRNA is fun!]	65.2 nM	19.6 nM
AAAAAAAAAACUGAGGAUAUCAGGGAUGGUACAUGAGGAUCACCCAUGUUGGCGGGCGAAGAAACUGAGAAGGCAGAAAAAAAAAA [JR_SameState2_Sub4]	79.6 nM	40.4 nM
GCUCCAGCUAGCAAGGAUAUGUAGGAUGCUACAUGAGGAUCACCCAUGUGCUGAAAUAAGUCCCGGCAGAAGGUGUGACUGGAGA [Laedtear]	26.9 nM	16.8 nM
GAAGACAUAGUAUAGGAUAUAUGAAUAAUUACAUGAGGAUCACCCAUGUGCAUUUAUAUGCGAACAUAGAAGGGUGGUAGUUGUC [Mat - Same state - Malcolm Mod - D129]	59.2 nM	633 nM
AUAAAACAUGAGGAUCACCCAUGUAGAAAUAAGGGAGGAUAUACAAAGACGAAAGUCAAAGUAGAAGGCUCAAAAG [76%, Meechl 5]	24.3 nM	16.8 nM
AAAGAAUGAAGGCAGGAUAUGUGAAAAAAAACAUGAGGAUCACCCAUGUAAUAAAUGGGUACAAAACAGAAGGGCCAAGAAACAA [SS 2 Tesla 3]	700 nM	380 nM
GAUAAACAUGAGGAUCACCCAUGUAGAUAUAUGGGAGGAUAUACAAAGACGAUAGUCAUAGUAGAAGGCCUAAUAG [77%, Mat - Mod of Eli - With 5 more U's]	91.2 nM	30 nM
AAAAAACAUGAGGAUCACCCAUGUGAAAAAUUCGCAGGAUAUCCCUUUUUUAAAUGGGAGGGAGAAGGGUGAAAAA [Nob's Hobby 16 - Jieux - Same State 1]	112 nM	34.8 nM
AAAUAAAUGACUCAGGAUAUGUCAGAGAAAACAUGAGGAUCACCCAUGUAAUAAUAACAUGUGUGACAGAAGGGAGUCAAUAAAU [LROPPY Same State 2 - v01_deltaG=.6]	15 nM	27.2 nM
CAGAGGAAGAGAGAGGAUAUCCAAAGGAAAACAUGAGGAUCACCCAUGUAAAAGGUAGGAAAUUGGGAGAAGGCUCAAGAGAGAG [salish99-ss2-064]	34.6 nM	27.4 nM

Reference: the supplement of paper PMC9170038
